Test results: US20060222644A1 (Biogen, published 2006)

Tests used:
[1] = target: T1, lymphotoxin beta receptor (LT-β-R) (human, UniProt P36941 31-435); assay: FACS of Protein A-purified antibodies on HT29 cells
T1 construct: whole, on cells; also called LT-β receptor
Experimental: Co-transfections of 293-EBNA cells with chBHA10 and huBHA10 Versions 1-4 were scaled up and conditioned medium was harvested. Antibody was purified on Protein A-Sepharose and purified mAbs were assayed for activity. Binding to the lymphotoxin-beta receptor was determined by FACS analysis of protein A-purified antibodies on the cell-line HT29.
HT29 cells were harvested by treatment with PBS containing 5 mM EDTA for 30 minutes followed by vigorous agitation. Cells were distributed to round-bottom 96-well plates at 2.5×10⁵ cells/well. Supernatants from 293-E cells transfected with BHA10 variants were added to the wells at the indicated dilutions in a total volume of 100 μl and incubated at 4° C. for 1 hour. The cells were washed twice with FACS buffer (PBS containing 5% FBS) and incubated with a 1:100 dilution of PE-conjugated anti-human heavy and light chain antibody (Jackson ImmunoResearch Laboratories) for 1 hour. The cells were then washed 3 times with FACS buffer and resuspended in 100 μl of PBS containing 1.0% paraformaldehyde. Samples were then transferred to the FACS facility for analysis. Protein A-purified antibodies from 293-E cells transfected with BHA10 variants were assayed at the indicated concentrations as shown in FIG. 2. The Protein A-purified CBE11 and 5C8 (anti-CD40L antibody) research standards were used as positive and negative controls, respectively. Rank ordering of binding activity was chBHA10=Version 4 huBHA10=Version 2 huBHA10>Version 3 huBHA10.

[2] = target: T1, lymphotoxin beta receptor (LT-β-R); assay: FACS staining of HT-29 cells with purified antibody; reference huCBE11

T1 sequence (P36941 31-435): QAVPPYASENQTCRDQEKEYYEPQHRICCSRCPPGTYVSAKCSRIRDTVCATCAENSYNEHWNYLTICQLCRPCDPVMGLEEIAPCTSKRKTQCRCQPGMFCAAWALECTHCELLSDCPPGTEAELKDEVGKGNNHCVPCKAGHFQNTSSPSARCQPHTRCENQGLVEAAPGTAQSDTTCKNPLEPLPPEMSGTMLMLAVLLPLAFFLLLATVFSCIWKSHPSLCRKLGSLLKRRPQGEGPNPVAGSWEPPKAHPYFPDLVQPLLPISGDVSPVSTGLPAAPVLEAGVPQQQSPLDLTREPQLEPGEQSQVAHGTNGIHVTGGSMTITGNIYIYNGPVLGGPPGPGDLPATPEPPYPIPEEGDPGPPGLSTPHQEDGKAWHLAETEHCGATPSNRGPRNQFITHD

Binder | binding result [1] | apparent Kd, fold relative to huCBE11 [2]
Version 4 huBHA10 (antibody, human IgG1, kappa, V domains shown, Heavy chain #3 and Light chain #2; human IgG1/kappa; the 293-EBNA material from pKJS046 may still carry it; also called huBHA10 Version 4; humanized BHA10 antibody version 4) VH: QVQLVQSGAEVKKPGSSVKVSCKASGYTFTTYYLHWVRQAPGQGLEWMGWIYPGNVHAQYNEKFKGRVTITADKSTSTAYMELSSLRSEDTAVYYCARSWEGFPYWGQGTTVTVSS VL: DIQMTQSPSSLSASVGDRVTITCKASQNVGINVAWYQQKPGKAPKSLISSASYRYSGVPSRFSGSGSGTDFTLTISSLQPEDFATYFCQQYDTYPFTFGQGTKVEIKR | binds | –
Version 2 huBHA10 (antibody, human IgG1, V domains shown, also called huBHA10 Version 2) VH: QVQLVQSGAEVKKPGSSVKVSCKASGYTFTTYYLHWVRQAPGQGLEWIGWIYPGNVHAQYNEKFKGRATITADKSTSTAYMELSSLRSEDTAVYYCARSWEGFPYWGQGTTVTVSS VL: DIQMTQSPSSLSASVGDRVTITCKASQNVGINVAWYQQKPGKAPKSLISSASYRYSGVPSRFSGSGSGTDFTLTISSLQPEDFATYFCQQYDTYPFTFGQGTKVEIKR | binds | –
Version 3 huBHA10 (antibody, human IgG1, V domains shown, the 293-EBNA material may still carry it; also called huBHA10 Version 3) VH: QVQLVQSGAEVKKPGSSVKVSCKASGYTFTTYYLHWVRQAPGQGLEWMGWIYPGNVHAQYNEKFKGRVTITADKSTSTAYMELSSLRSEDTAVYYCARSWEGFPYWGQGTTVTVSS VL: DIQMTQSPSSLSASVGDRVTITCKASQNVGINVAWFQQKPGKAPKSLISSASYRYSGVPSRFSGSGSGTDFTLTISSLQPEDFATYYCQQYDTYPFTFGQGTKVEIK | binds | –
chimeric BHA10 (chBHA10) (antibody, human IgG1, V domains shown, expressed in 293-EBNA cells; also called chBHA 0) VH: QVQLQQSGPELVKPGASVRISCKASGYTFTTYYLHWVKQRPGQGLEWIGWIYPGNVHAQYNEKFKGKATLTADKSSSTAYMQLSSLTSEDSAIYFCARSWEGFPYWGQGTTVTVSS VL: DIVMTQSQKFMSTSVGDRVSVTCKASQNVGINVAWYQQKPGQSPKSLISSASYRYSGVPDRFTGSGSGTDFTLTITNVQSEDLAEYFCQQYDTYPFTFGSGTKLEIK | – | ~2 fold
